Reference: patent US20240043504A1

Molecular target: SARS-CoV-2 spike protein variant Y483A (Table 27), on VSV pseudoparticles (SARS-CoV-2) (UniProt P0DTC2)
Experiment: cell-based or functional assay

In the case of mAb10987 (antibody), the Relative neutralization (5 µg/ml, Vero cells) is reported as 99%.
